Data reported in publication PMC9726900.

Assays:
[1] = biological target: 46w60 nucleosome (recombinant human histone octamer on Widom 601 DNA with 46-bp and 60-bp flanks), Cy5-labelled (human) (UniProt P0C0S8); assay: MST; CHD4 titrated (1:2 serial dilution) into 25 nM Cy5-labelled 46w60 nucleosome; 50 mM HEPES pH 7.5, 50 mM NaCl, 3 mM MgCl2 dilution buffer, 100 ng/µL BSA, 0.5% glycerol; 10 min on ice; Monolith NT.115, 80% LED, 20% MST power; fit to a 1:1 binding isotherm
[2] = tested on: CHD4-IDR2-scram (Homo sapiens); assay: MST; settings: 3 mM Mg2+ in dilution buffer; CHD4: 50 mM HEPES pH 7.5, NaCl up to 50 mM and MgCl2 up to 3 mM (from dilution buffer), 100 ng/uL BSA, 0.5% glycerol, 25 nM Cy5 substrate; C1bC2a: 20 mM HEPES …
[3] = tested on: CHD4(1-1380) (Homo sapiens); assay: MST; settings: CHD4: 50 mM HEPES pH 7.5, NaCl up to 50 mM and MgCl2 up to 3 mM (from dilution buffer), 100 ng/uL BSA, 0.5% glycerol, 25 nM Cy5 substrate; C1bC2a: 20 mM HEPES …
[4] = tested on: CHD4(1-1230) (Homo sapiens); assay: MST; settings: CHD4: 50 mM HEPES pH 7.5, NaCl up to 50 mM and MgCl2 up to 3 mM (from dilution buffer), 100 ng/uL BSA, 0.5% glycerol, 25 nM Cy5 substrate; C1bC2a: 20 mM HEPES …
[5] = tested on: CHD4(1-1810) (Homo sapiens); assay: MST; settings: CHD4: 50 mM HEPES pH 7.5, NaCl up to 50 mM and MgCl2 up to 3 mM (from dilution buffer), 100 ng/uL BSA, 0.5% glycerol, 25 nM Cy5 substrate; C1bC2a: 20 mM HEPES …
CHD4 WT (Homo sapiens) = assay: MST; settings: 3 mM Mg2+ in dilution buffer; CHD4: 50 mM HEPES pH 7.5, NaCl up to 50 mM and MgCl2 up to 3 mM (from dilution buffer), 100 ng/uL BSA, 0.5% glycerol, 25 nM Cy5 substrate; C1bC2a: 20 mM HEPES …
[6] = tested on: CHD4-IDR2-del- (Homo sapiens); assay: MST; settings: 3 mM Mg2+ in dilution buffer; CHD4: 50 mM HEPES pH 7.5, NaCl up to 50 mM and MgCl2 up to 3 mM (from dilution buffer), 100 ng/uL BSA, 0.5% glycerol, 25 nM Cy5 substrate; C1bC2a: 20 mM HEPES …
[7] = tested on: CHD4 C1bC2a (SANT-SLIDE) (Homo sapiens); assay: MST; settings: 120 mM NaCl, 1 mM TCEP, no Mg2+; CHD4: 50 mM HEPES pH 7.5, NaCl up to 50 mM and MgCl2 up to 3 mM (from dilution buffer), 100 ng/uL BSA, 0.5% glycerol, 25 nM Cy5 substrate; C1bC2a: 20 mM HEPES …

Sequence of CHD4(1–1230) (Q14839 1-1230): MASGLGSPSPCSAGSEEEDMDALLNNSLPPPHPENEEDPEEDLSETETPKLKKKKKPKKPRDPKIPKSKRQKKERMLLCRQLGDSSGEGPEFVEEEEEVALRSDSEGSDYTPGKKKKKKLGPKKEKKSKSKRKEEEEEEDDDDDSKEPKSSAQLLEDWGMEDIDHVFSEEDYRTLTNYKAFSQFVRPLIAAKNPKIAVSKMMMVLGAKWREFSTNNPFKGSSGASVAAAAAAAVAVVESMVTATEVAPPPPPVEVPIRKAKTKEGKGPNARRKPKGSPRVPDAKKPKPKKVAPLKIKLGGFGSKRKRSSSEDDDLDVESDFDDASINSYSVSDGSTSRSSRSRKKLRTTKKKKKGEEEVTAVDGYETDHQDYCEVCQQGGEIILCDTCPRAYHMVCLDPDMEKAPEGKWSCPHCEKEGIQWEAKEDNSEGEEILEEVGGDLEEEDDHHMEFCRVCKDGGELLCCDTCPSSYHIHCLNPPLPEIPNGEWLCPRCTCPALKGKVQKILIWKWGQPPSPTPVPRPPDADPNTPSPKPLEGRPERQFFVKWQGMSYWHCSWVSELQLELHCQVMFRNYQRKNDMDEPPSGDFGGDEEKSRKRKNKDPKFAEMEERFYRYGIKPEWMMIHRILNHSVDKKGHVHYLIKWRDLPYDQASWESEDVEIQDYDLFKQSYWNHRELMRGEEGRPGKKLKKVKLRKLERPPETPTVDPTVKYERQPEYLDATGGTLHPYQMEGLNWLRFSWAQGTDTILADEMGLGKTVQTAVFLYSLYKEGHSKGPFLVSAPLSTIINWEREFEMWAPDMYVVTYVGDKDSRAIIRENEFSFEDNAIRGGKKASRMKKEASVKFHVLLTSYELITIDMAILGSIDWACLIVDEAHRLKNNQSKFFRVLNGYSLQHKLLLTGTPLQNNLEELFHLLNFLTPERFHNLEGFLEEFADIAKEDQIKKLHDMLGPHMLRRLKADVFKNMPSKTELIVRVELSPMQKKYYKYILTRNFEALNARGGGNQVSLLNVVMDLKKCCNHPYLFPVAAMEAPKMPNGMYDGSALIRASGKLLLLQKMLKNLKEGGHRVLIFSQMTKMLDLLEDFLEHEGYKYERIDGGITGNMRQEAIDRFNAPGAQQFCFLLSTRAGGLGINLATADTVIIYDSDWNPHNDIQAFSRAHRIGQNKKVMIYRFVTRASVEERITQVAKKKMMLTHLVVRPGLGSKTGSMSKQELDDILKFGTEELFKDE
Sequence of CHD4(1–1380) (Q14839 1-1380): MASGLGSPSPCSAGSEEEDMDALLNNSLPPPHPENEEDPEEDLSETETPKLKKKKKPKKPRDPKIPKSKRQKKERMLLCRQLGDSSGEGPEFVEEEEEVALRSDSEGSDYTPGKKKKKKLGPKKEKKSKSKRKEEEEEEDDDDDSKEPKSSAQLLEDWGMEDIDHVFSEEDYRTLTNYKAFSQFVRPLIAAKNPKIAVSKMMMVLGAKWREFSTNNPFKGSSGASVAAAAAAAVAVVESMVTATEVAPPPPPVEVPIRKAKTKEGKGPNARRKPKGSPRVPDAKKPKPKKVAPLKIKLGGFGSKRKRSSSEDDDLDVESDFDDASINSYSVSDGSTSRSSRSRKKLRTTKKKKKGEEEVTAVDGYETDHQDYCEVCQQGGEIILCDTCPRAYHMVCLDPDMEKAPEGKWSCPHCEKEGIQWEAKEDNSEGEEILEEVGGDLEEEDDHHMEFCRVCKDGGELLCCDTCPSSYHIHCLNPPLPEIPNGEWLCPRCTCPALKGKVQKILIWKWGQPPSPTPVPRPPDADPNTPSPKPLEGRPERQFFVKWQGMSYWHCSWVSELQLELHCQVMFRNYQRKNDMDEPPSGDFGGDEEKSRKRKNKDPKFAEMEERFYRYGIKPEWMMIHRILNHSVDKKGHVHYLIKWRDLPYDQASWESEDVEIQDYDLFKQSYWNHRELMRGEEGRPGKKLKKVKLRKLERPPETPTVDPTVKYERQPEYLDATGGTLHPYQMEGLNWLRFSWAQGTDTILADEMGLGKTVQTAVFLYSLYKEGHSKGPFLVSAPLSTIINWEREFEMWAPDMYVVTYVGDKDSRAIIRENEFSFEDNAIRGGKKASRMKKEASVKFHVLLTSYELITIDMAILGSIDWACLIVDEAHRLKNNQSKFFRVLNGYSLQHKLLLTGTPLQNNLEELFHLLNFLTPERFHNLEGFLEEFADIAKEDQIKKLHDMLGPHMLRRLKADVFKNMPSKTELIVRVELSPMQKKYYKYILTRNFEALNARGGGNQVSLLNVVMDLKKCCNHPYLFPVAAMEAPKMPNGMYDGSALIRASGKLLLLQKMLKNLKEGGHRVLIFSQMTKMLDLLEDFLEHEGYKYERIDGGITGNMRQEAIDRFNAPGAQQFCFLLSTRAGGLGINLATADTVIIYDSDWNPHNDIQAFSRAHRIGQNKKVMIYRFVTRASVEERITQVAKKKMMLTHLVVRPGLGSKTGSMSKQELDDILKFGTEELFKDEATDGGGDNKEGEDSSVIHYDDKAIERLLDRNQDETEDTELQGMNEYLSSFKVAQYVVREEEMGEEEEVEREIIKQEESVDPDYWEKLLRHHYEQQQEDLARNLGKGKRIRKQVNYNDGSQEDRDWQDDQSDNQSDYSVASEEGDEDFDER
Sequence of CHD4(355–1912) (Q14839 355-1912): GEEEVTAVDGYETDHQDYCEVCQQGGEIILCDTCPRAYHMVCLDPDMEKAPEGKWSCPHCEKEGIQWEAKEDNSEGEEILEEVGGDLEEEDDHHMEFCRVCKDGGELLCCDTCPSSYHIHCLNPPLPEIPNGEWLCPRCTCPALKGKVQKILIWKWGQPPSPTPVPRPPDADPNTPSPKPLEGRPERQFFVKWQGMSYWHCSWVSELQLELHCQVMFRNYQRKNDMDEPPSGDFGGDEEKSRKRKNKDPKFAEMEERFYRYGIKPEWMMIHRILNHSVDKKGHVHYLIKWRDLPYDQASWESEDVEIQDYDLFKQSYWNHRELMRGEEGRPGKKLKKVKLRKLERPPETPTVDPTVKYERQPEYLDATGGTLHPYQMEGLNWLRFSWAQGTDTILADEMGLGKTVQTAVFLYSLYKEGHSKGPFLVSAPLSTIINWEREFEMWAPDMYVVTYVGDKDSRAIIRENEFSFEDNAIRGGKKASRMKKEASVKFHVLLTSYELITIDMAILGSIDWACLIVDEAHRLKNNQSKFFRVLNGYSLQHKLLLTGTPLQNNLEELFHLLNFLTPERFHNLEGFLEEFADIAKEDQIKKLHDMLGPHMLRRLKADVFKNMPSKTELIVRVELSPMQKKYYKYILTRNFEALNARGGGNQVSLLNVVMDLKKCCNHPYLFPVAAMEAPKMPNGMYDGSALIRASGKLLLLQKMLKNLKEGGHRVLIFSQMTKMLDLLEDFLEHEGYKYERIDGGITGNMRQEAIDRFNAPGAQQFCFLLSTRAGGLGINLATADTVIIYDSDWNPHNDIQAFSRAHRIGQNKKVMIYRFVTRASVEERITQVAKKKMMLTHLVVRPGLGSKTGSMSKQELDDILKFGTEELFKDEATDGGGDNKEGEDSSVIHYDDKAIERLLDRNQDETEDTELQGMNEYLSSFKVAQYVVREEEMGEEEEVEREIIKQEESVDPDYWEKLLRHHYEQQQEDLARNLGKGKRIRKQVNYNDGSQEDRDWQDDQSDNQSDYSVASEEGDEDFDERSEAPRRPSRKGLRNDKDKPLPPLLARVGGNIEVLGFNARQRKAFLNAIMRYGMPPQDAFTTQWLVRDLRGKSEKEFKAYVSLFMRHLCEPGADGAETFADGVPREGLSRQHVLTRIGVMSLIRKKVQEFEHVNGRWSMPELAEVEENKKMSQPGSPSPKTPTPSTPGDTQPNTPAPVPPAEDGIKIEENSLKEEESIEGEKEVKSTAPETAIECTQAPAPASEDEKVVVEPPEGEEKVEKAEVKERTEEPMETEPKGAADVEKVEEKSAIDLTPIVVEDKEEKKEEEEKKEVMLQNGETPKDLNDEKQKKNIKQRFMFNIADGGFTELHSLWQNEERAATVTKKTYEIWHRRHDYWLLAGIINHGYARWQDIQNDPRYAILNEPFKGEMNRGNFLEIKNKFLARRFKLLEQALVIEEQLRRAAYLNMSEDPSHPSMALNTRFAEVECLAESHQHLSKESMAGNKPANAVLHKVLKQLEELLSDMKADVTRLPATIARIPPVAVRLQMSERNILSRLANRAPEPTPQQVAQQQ

“CHD4-IDR2-del+ (from UniProt Q14839 1-226; Q14839 363-1912) (enzyme)” showed a fold decrease in affinity against WT CHD4 [1] of 5 fold.

For 46w60 nucleosome, the Kd [2] was 0.1 µM, the Kd [3] was 0.43 µM and the Kd [4] was 0.21 µM. For the same substance, the Kd [5] was 0.15 µM, the Kd (CHD4 WT (Homo sapiens)) was 0.045 µM and the Kd [6] was 0.02 µM.

For “CHD4(1–1540) (from UniProt Q14839 1-1540) (domain or fragment)”, the fold decrease in nucleosome binding against WT CHD4 [1] was 4 fold.

Substance “CHD4(1–1230) (from UniProt Q14839 1-1230) (domain or fragment)” has a fold decrease in affinity against WT CHD4 [1] of 5 fold and a fold increase in binding against CHD4(1–1380) [1] of 2 fold.

“WT CHD4 (human chromodomain helicase DNA-binding protein 4, full length) (from UniProt Q14839 1-1912) (enzyme)” was tested, and the Kd [1] was 0.045 µM.

For “CHD4(355–1912) (from UniProt Q14839 355-1912) (domain or fragment)”, the fold decrease in substrate binding affinity against WT CHD4 [1] was 3 fold.

“CHD4-IDR2-del– (from UniProt Q14839 1-226; Q14839 363-1912) (enzyme)” was tested, and the Kd [1] was 0.02 µM.

With “CHD4(1–1380) (from UniProt Q14839 1-1380) (domain or fragment)” the fold decrease in substrate binding against WT CHD4 [1] was 10 fold.

“CHD4(1–1810) (from UniProt Q14839 1-1810) (domain or fragment)” was tested, and the fold decrease in affinity against WT CHD4 [1] was 3 fold.

46w60 DNA (naked) was tested, and the Kd (CHD4 WT (Homo sapiens)) was 0.35 µM and the Kd [7] was 10 µM.
